Source: patent US20150284453A1, “METHOD OF PROTECTING CARDIAC FUNCTION” (Declmmune Therapeutics, Inc., priority 2012, published 2015)

B1: murine 21G6 mAb: murine anti-N2 monoclonal antibody from hybridoma ATCC Accession Number PTA-9393 (antibody, V domains shown)
VH: QVQLQQPGAELVKPGASVKLSCKASGYTFTSYYMYWVKQRPGQGLEWIGGINPSNGGTNFNEKFKSKATLTVDKSSSTAYMQLSSLTSEDSAVYYCTRWGYDREWFAYWGQGTLVTVSA
VL: DIVMTQAAPSVPVTPGESVSISCRSSKSLLHSNGNTYLYWFLQRPGQSPQVLIYRMSNLASGVPDRFSGSGSGTAFTLRISRVEAEDVGVYYCMQHLEYPFTFGSGTKLEIKR

Assays:
Type in all cases: in vivo
[1] = test system: swine model of myocardial infarction; assay: Serum cardiac troponin-T (cTnT) levels, swine model of myocardial infarction; settings: N2 4.6 mg/kg or m21G6 2 mg/kg i.v. prior to reperfusion; for reduction of peak serum cTnT levels as compared to saline controls: 8-120 h post-reperfusion; for reduction of cTnT AUC values as compared to saline controls: five day reperfusion period
Experimental: FIGS. 3A and 3B are plots showing the effect of N2 peptide and murine 21G6 mAb (m21G6) on serum cardiac troponin-T (cTnT) levels. Swine were subjected to 1 h LAD occlusion and 5 d reperfusion. Prior to reperfusion either saline, N2 (4.6 mg/kg), or m21G6 (2 mg/kg) was injected i.v. into the swine. Serum samples were taken at several time points as described in text and analyzed for cTnT. (A) Peak cTnT levels. (B) cTnT levels over 5d reperfusion. # represents p<0.05; ## represents p<0.01. Each symbol represents data from one animal. Cardiac troponin-T (cTnT), a well-established marker for cardiac tissue injury, from 8-120 h post-reperfusion, was also analyzed. […] Saline-treated animals developed approximately a 20% infarct of the left ventricle as assessed by TTC staining at 5d post-reperfusion as predicted • Serial EKGs to document ST elevation • Angiogram q20 min to confirm complete occlusion • Lidocaine and defibrillation as needed • Administration of control vs. N2 peptide 5 minutes prior to reperfusion or mAb 21G6 30 minutes before reperfusion • Measure trend in cardiac enzymes (CK, cTnT) • Cardiectomy on Day 5 or Day 21 via cardioplegic arrest • LAD ligation at site of occlusion followed by injection of Evans blue dye via aortic cannula gives estimate of Area At Risk (AAR) • Incubation of transverse sections in TTC for 15 min at 37° C. • Calculate % infarction by computerized planimetry • 21G6 Alexa 568(1 mg/ml) infusion was initiated 2 min prior to reperfusion at ≈1 m1/min for ≈30 min via coronary catheter (results shown in FIG. 1 showing localization of the antibody to the injured left ventricle and not to the uninjured right ventricle) • Heart was perfused with cardioplegic solution 1 h post-ischemia, harvested, sectioned, and punch biopsies taken in the area at risk and in right ventricle • Sections were stained with anti-swine CD31 FITC (Serotec) 1/20 dilution • Using a fluoroscopically guided balloon catheter approach, the left anterior descending coronary artery (LAD) was occluded for 60 min at a defined point distal to the 2nd and 3rd diagonal branches. Saline-treated animals developed approximately a 20% infarct of the left ventricle as assessed by TTC staining at 5d post-reperfusion as predicted.

[2] = test system: porcine model of myocardial infarction; assay: Cardiac function (LVEF, fractional shortening) by echocardiography, porcine model of myocardial infarction; settings: for increase in EF compared to saline controls at the same time point: 21 days post-reperfusion, 3D TTE, n of 3 per group; for ejection fraction (EF) 21 d post-reperfusion: Quinones method; for ejection fraction (EF) 21 d post-reperfusion / LVEF at baseline: n=3/group; for recovery of cardiac function by fractional shortening (FS) compared to baseline: 21d reperfusion period; for LVEF at baseline: baseline (prior to occlusion procedure)
Excerpt: FIG. 4A to 4C are graphs showing measurements of cardiac function by echocardiography. (A) Non-corrected % LVEF as measured by 2D TTE at 21d post-reperfusion compared to baseline using Quinones method (described below in the Examples section). (B) % LVEF as measured by 3D TTE at 21d post-reperfusion. (C) Fractional shortening as measured by 2D TTE at 21d post-reperfusion compared to baseline. # represents a p<0.05. n=3/group.
To determine the effect of N2 peptide and the 21G6 antibody treatment on cardiac function, echocardiography was employed. Echocardiography is widely accepted for evaluation of cardiac function and is utilized in emergency and operating rooms as well as intensive care departments in most hospitals. Ventricular function as assessed by echocardiography is accompanied by low intra-observer and inter-observer variability and assessment of left ventricular ejection fraction remains the standard of care in clinical practice. In addition, fractional shortening (FS), another measure of left ventricular function, was also calculated based on two-dimensional (2D) measurements at all time points measured at mid-ventricle and is defined as the difference between end-diastolic and end-systolic dimensions divided by end-diastolic dimension.
For animals in which functional data was generated (N2: n of 3, murine 21G6 mAb: n of 3, Saline: n of 3), cardiac imaging was performed via transthoracic echocardiography (TTE) at baseline (prior to occlusion procedure), and then up to 21d following reperfusion. For baseline TTE images were obtained using a high-frequency 2D probe and a Philips iE33 xMATRIX scanner (Andover, Mass.). Prior to sacrifice at 21 days, both 2D and 3D epicardial echocardiography images were obtained after median sternotomy was performed. 3D volumetric data sets were ECG-gated from 4-7 consecutive heartbeats. Additionally, 3D left ventricular volumes and ejection fractions were computed from the epicardial 3D datasets.
Prior to the occlusion procedure, a baseline TTE image was recorded. Afterwards, TTE was performed. Animals were treated in an identical manner as in the 5 day study for the catheterization procedure except that animals were maintained for an additional 16 days. The echocardiographer was blinded to the treatment schedule.
At baseline, saline, N2- and murine 21G6 mAb -treated animals had LVEFs of 53%, 52.6%, and 51%, respectively.
• Intravenous amiodarone infusion (1 mg/min) • Systemic heparinization (˜150 units/kg) • Percutaneously access of LAD via right (R) femoral artery • Occlusion mid-LAD with balloon catheter for 60 min as follows: Using a fluoroscopically guided balloon catheter approach, the left anterior descending coronary artery (LAD) was occluded for 60 min at a defined point distal to the 2nd and 3rd diagonal branches. […]

[3] = test system: swine model of myocardial infarction; assay: Myocardial infarct size by Evan's blue/TTC staining, swine model of myocardial infarction (1 h LAD occlusion, 5 d reperfusion); settings: 5d post-reperfusion, TTC staining; i.v. N2 4.6 mg/kg 5 min or murine 21G6 mAb 2 mg/kg 30 min prior to reperfusion
Experimental: FIG. 2A to 2C are plots showing that N2 peptide and murine 21G6 mAb reduce infarct size in a swine model of myocardial infarction. Swine were subjected to 1 h LAD occlusion and 5 d reperfusion. Prior to reperfusion either saline, N2 (4.6 mg/kg), or murine 21G6 mAb (2 mg/kg) was injected i.v. into the swine. Following 5 d reperfusion, myocardial sections were stained with Evan's blue and TTC. (A) Myocardial infarct size expressed as a percentage of the left ventricle (LV). (B) Percentage of area at risk (AAR) to the LV. (C) Myocardial infarct size expressed as a percentage of the AAR. # represents p<0.05; ## represents p<0.01; ### represents p<0.001. Each symbol represents data from one animal. (Note: Due to poor perfusion with Evan's blue dye in one animal, n=5 in panels B and C). […] Saline-treated animals developed approximately a 20% infarct of the left ventricle as assessed by TTC staining at 5d post-reperfusion as predicted.

| Molecule | reduction of peak serum cTnT levels as compared to saline controls [1] | reduction of cTnT AUC values as compared to saline controls [1] | increase in EF compared to saline controls at the same time point [2] [%] | ejection fraction (EF) 21 d post-reperfusion ([2]; 2D TTE) [%] | recovery of cardiac function by fractional shortening (FS) compared to baseline ([2]; 2D TTE) [%] | LVEF at baseline ([2]; 2D TTE) [%] | reduction of infarct size as a percentage of the area at risk (AAR) [3] [%] | recovery of cardiac function (LVEF at 21 d relative to baseline) ([2]; 21 d post-reperfusion vs baseline, 2D TTE, saline-treated 74.7%) [%] |
| --- | --- | --- | --- | --- | --- | --- | --- | --- |
| LMKNMDPLNDNV [N2 peptide] | no effect | no effect | 29 | 52.0 | 98.8 | 52.6 | 31 |  |
| B1 | 60% | 47% | 21 | 50.4 | 99.4 | 51 | 49 | 98.8 |
